# Laboratory results taken from FireProtDB.
# B1: Chemotaxis protein CheY wild type, P0AE67 (protein)
# chain: MADKELKFLVVDDFSTMRRIVRNLLKELGFNNVEEAEDGVDALNKLQAGGYGFVISDWNMPNMDGLELLKTIRADGAMSALPVLMVTAEAKKENIIAAAQAGASGYVVKPFTAATLEEKLNKIFEKLGM
# B2: Beta-lactoglobulin-1 wild type, P02758 (protein)
# chain: MKCLLLALGLALMCGIQATNIPQTMQDLDLQEVAGKWHSVAMAASDISLLDSESAPLRVYIEKLRPTPEDNLEIILREGENKGCAEKKIFAEKTESPAEFKINYLDEDTVFALDTDYKNYLFLCMKNAATPGQSLVCQYLARTQMVDEEIMEKFRRALQPLPGRVQIVPDLTRMAERCRI
# B3: Shikimate kinase 2 wild type, P10880 (protein)
# chain: MTEPIFMVGARGCGKTTVGRELARALGYEFVDTDIFMQHTSGMTVADVVAAEGWPGFRRRESEALQAVATPNRVVATGGGMVLLEQNRQFMRAHGTVVYLFAPAEELALRLQASPQAHQRPTLTGRPIAEEMEAVLREREALYQDVAHYVVDATQPPAAIVCELMQTMRLPAA
# B4: DNA-binding transcriptional dual regulator CRP wild type, P0ACJ8 (protein)
# chain: MVLGKPQTDPTLEWFLSHCHIHKYPSKSTLIHQGEKAETLYYIVKGSVAVLIKDEEGKEMILSYLNQGDFIGELGLFEEGQERSAWVRAKTACEVAEISYKKFRQLIQVNPDILMRLSAQMARRLQVTSEKVGNLAFLDVTGRIAQTLLNLAKQPDAMTHPDGMQIKITRQEIGQIVGCSRETVGRILKMLEDQNLISAHGKTIVVYGTR
# B5: DNA-Binding protein G5P wild type, P69542 (protein)
# chain: MIKVEIKPSQAQFTTRSGVSRQGKPYSLNEQLCYVDLGNEYPVLVKITLDEGQPAYAPGLYTVHLSSFKVGQFGSLMIDRLRLVPAK
# B6: L-asparaginase 2 wild type, P00805 (protein)
# chain: MEFFKKTALAALVMGFSGAALALPNITILATGGTIAGGGDSATKSNYTVGKVGVENLVNAVPQLKDIANVKGEQVVNIGSQDMNDNVWLTLAKKINTDCDKTDGFVITHGTDTMEETAYFLDLTVKCDKPVVMVGAMRPSTSMSADGPFNLYNAVVTAADKASANRGVLVVMNDTVLDGRDVTKTNTTDVATFKSVNYGPLGYIHNGKIDYQRTPARKHTSDTPFDVSKLNELPKVGIVYNYANASDLPAKALVDAGYDGIVSAGVGNGNLYKSVFDTLATAAKTGTAVVRSSRVPTGATTQDAEVDDAKYGFVASGTLNPQKARVLLQLALTQTKDPQQIQQIFNQY
# B7: Inorganic pyrophosphatase wild type, P0A7A9 (protein)
# chain: MSLLNVPAGKDLPEDIYVVIEIPANADPIKYEIDKESGALFVDRFMSTAMFYPCNYGYINHTLSLDGDPVDVLVPTPYPLQPGSVIRCRPVGVLKMTDEAGEDAKLVAVPHSKLSKEYDHIKDVNDLPELLKAQIAHFFEHYKDLEKGKWVKVEGWENAEAAKAEIVASFERAKNK
# B8: Protein GrpE wild type, P09372 (protein)
# chain: MSSKEQKTPEGQAPEEIIMDQHEEIEAVEPEASAEQVDPRDEKVANLEAQLAEAQTRERDGILRVKAEMENLRRRTELDIEKAHKFALEKFINELLPVIDSLDRALEVADKANPDMSAMVEGIELTLKSMLDVVRKFGVEVIAETNVPLDPNVHQAIAMVESDDVAPGNVLGIMQKGYTLNGRTIRAAMVTVAKAKA
# B9: Aspartate aminotransferase wild type, P00509 (protein)
# chain: MFENITAAPADPILGLADLFRADERPGKINLGIGVYKDETGKTPVLTSVKKAEQYLLENETTKNYLGIDGIPEFGRCTQELLFGKGSALINDKRARTAQTPGGTGALRVAADFLAKNTSVKRVWVSNPSWPNHKSVFNSAGLEVREYAYYDAENHTLDFDALINSLNEAQAGDVVLFHGCCHNPTGIDPTLEQWQTLAQLSVEKGWLPLFDFAYQGFARGLEEDAEGLRAFAAMHKELIVASSYSKNFGLYNERVGACTLVAADSETVDRAFSQMKAAIRANYSNPPAHGASVVATILSNDALRAIWEQELTDMRQRIQRMRQLFVNTLQEKGANRDFSFIIKQNGMFSFSGLTKEQVLRLREEFGVYAVASGRVNVAGMTPDNMAPLCEAIVAVL
# Conditions: whole UniProt chain shown
# [1] = Equus caballus, pH 4, 25 °C, GdnHCl, CD, Citrate 50 mM
# [2] = Equus caballus, pH 4, 25 °C, GdnHCl, CD, Formate 50 mM
# [3] = Equus caballus, pH 4, 25 °C, Urea, CD, Citrate 50 mM
# [4] = Equus caballus, pH 4, 25 °C, Urea, CD, Formate 50 mM
# [5] = Escherichia coli (strain K12), pH 7, Thermal, DSC, Potassium phosphate 50 mM, KCl 0.5 M, reversible: no
# [6] = Escherichia coli (strain K12), pH 7.5, 10 °C, Urea, CD, LcrH
# [7] = Escherichia coli (strain K12), pH 7.5, 20 °C, Urea, CD, LcrH
protein,measurement,setting,value
B1,unfolding free energy,"Escherichia coli (strain K12), pH 7, 25 °C, Urea, Fluorescence, Cacodylate 100 mM",5.6 kcal/mol
B2,denaturant m value,[1],4.74 kcal/mol/M
same,unfolding free energy,[1],10.1 kcal/mol
same,denaturant m value,[2],1.54 kcal/mol/M
same,unfolding free energy,[2],3.92 kcal/mol
same,denaturant m value,[3],2.9 kcal/mol/M
same,unfolding free energy,[3],9.83 kcal/mol
same,denaturant m value,[4],0.74 kcal/mol/M
same,unfolding free energy,[4],2.9 kcal/mol
B3,denaturant midpoint (higher = more stable),"Dickeya chrysanthemi, pH 7.6, 25 °C, Urea, Fluorescence, Tris-HCl 35 mM, KCl 5 mM",2.1 M
B4,Tm,[5],66.4 °C
same,heat capacity change of unfolding,[5],0.42 kcal/mol/K
same,unfolding enthalpy (calorimetric),[5],131 kcal/mol
same,unfolding enthalpy (van 't Hoff),[5],231 kcal/mol
same,unfolding free energy,"Escherichia coli (strain K12), pH 7.9, 20 °C, GdnHCl, CD, Tris-HCl 50 mM, KCl 0.1 M, reversible: yes",7.2 kcal/mol
same,unfolding free energy,"Escherichia coli (strain K12), pH 7.9, 20 °C, Thermal, CD, Tris-HCl 50 mM, KCl 100 mM, reversible: yes",7.32 kcal/mol
B5,unfolding free energy,"Enterobacteria phage fd, pH 7, 25 °C, GdnHCl, CD, MOPS 0.05 M, NaCl 0.1 M, reversible: yes",16.3 kcal/mol
B6,unfolding free energy,"Escherichia coli (strain K12), pH 7.4, 25 °C, Urea, Fluorescence, Tris-HCl 50 mM",11.5 kcal/mol
B7,Tm,"Escherichia coli (strain K12), pH 7, Thermal, CD, HEPES 20 mM, MgCl2 5 mM",84 °C
same,Tm,"Escherichia coli (strain K12), pH 7, Thermal, CD, HEPES 20 mM",58 °C
B8,Tm,"Escherichia coli (strain K12), pH 7, Thermal, CD, potassium phosphate 25 mM, reversible: yes",48 °C
same,Tm,"Escherichia coli (strain K12), pH 7, Thermal, DSC, potassium phosphate 25 mM, reversible: yes",48 °C
B9,denaturant m value,[6],3.4 kcal/mol/M
same,unfolding free energy,[6],24.4 kcal/mol
same,denaturant m value,[7],4.8 kcal/mol/M
same,unfolding free energy,[7],12 kcal/mol
same,unfolding free energy,"Escherichia coli (strain K12), pH 7.5, 25 °C, Urea, enzyme activity, potassium phosphate 20 mM",10 kcal/mol
